Assay results taken from patent US20210388087A1 (Chugai, published 2021).

B1: CE115HA000 H96Y one-arm antibody (antibody, human IgG1, kappa, L234A L235A, N297A, name in Kabat numbering)
heavy: QVQLVESGGGVVQPGRSLRLSCAASGFTFSNAWMHWVRQAPGKGLEWVAQIKAKSNNYATYYAESVKGRFTISRDDSKNSLYLQMNSLKTEDTAVYYCRYVYYGAYYGVDAWGQGTTVTVSSASTKGPSVFPLAPSSKSTSGGTAALGCLVKDYFPEPVTVSWNSGALTSGVHTFPAVLQSSGLYSLSSVVTVPSSSLGTQTYICNVNHKPSNTKVDKKVEPKSCDKTHTCPPCPAPEAAGGPSVFLFPPKPKDTLMISRTPEVTCVVVDVSHEDPEVKFNWYVDGVEVHNAKTKPREEQYASTYRVVSVLTVLHQDWLNGKEYKCKVSNKALPAPIEKTISKAKGQPREPQVYTLPPSRCELTKNQVSLSCAVKGFYPSDIAVEWESNGQPENNYKTTPPVLDSDGSFFLVSKLTVDKSRWQQGNVFSCSVMHEALHNHYTQKSLSLSPDYKDDDDK
chain: EPKSSDKTHTCPPCPAPELLGGPSVFLFPPKPKDTLMISRTPEVTCVVVDVSHEDPEVKFNWYVDGVEVHNAKTKPREEQYNSTYRVVSVLTVLHQDWLNGKEYKCKVSNKALPAPIEKTISKAKGQPREPQVCTLPPSRDELTKNQVSLWCLVKGFYPSDIAVEWESNGQPENNYKTTPPVLDSDGSFFLYSKLTVDKSRWQQGNVFSCSVMHEALHNRYTQKSLSLSP
light: DIVMTQSPLSLPVTPGEPASISCRSSQSLVHSNRNTYLHWYQQKPGQAPRLLIYKVSNRFSGVPDRFSGSGSGTDFTLKISRVEAEDVGVYYCGQGTQVPYTFGQGTKLEIKRTVAAPSVFIFPPSDEQLKSGTASVVCLLNNFYPREAKVQWKVDNALQSGNSQESVTEQDSKDSTYSLSSTLTLSKADYEKHKVYACEVTHQGLSSPVTKSFNRGEC
B2: CE115HA000 K43E one-arm antibody (antibody, human IgG1, kappa, L234A L235A, N297A, name in Kabat numbering)
heavy: QVQLVESGGGVVQPGRSLRLSCAASGFTFSNAWMHWVRQAPGEGLEWVAQIKAKSNNYATYYAESVKGRFTISRDDSKNSLYLQMNSLKTEDTAVYYCRYVHYGAYYGVDAWGQGTTVTVSSASTKGPSVFPLAPSSKSTSGGTAALGCLVKDYFPEPVTVSWNSGALTSGVHTFPAVLQSSGLYSLSSVVTVPSSSLGTQTYICNVNHKPSNTKVDKKVEPKSCDKTHTCPPCPAPEAAGGPSVFLFPPKPKDTLMISRTPEVTCVVVDVSHEDPEVKFNWYVDGVEVHNAKTKPREEQYASTYRVVSVLTVLHQDWLNGKEYKCKVSNKALPAPIEKTISKAKGQPREPQVYTLPPSRCELTKNQVSLSCAVKGFYPSDIAVEWESNGQPENNYKTTPPVLDSDGSFFLVSKLTVDKSRWQQGNVFSCSVMHEALHNHYTQKSLSLSPDYKDDDDK
chain: EPKSSDKTHTCPPCPAPELLGGPSVFLFPPKPKDTLMISRTPEVTCVVVDVSHEDPEVKFNWYVDGVEVHNAKTKPREEQYNSTYRVVSVLTVLHQDWLNGKEYKCKVSNKALPAPIEKTISKAKGQPREPQVCTLPPSRDELTKNQVSLWCLVKGFYPSDIAVEWESNGQPENNYKTTPPVLDSDGSFFLYSKLTVDKSRWQQGNVFSCSVMHEALHNRYTQKSLSLSP
light: DIVMTQSPLSLPVTPGEPASISCRSSQSLVHSNRNTYLHWYQQKPGQAPRLLIYKVSNRFSGVPDRFSGSGSGTDFTLKISRVEAEDVGVYYCGQGTQVPYTFGQGTKLEIKRTVAAPSVFIFPPSDEQLKSGTASVVCLLNNFYPREAKVQWKVDNALQSGNSQESVTEQDSKDSTYSLSSTLTLSKADYEKHKVYACEVTHQGLSSPVTKSFNRGEC
B3: CE115HA000 K52D one-arm antibody (antibody, human IgG1, kappa, L234A L235A, N297A, name in Kabat numbering)
heavy: QVQLVESGGGVVQPGRSLRLSCAASGFTFSNAWMHWVRQAPGKGLEWVAQIDAKSNNYATYYAESVKGRFTISRDDSKNSLYLQMNSLKTEDTAVYYCRYVHYGAYYGVDAWGQGTTVTVSSASTKGPSVFPLAPSSKSTSGGTAALGCLVKDYFPEPVTVSWNSGALTSGVHTFPAVLQSSGLYSLSSVVTVPSSSLGTQTYICNVNHKPSNTKVDKKVEPKSCDKTHTCPPCPAPEAAGGPSVFLFPPKPKDTLMISRTPEVTCVVVDVSHEDPEVKFNWYVDGVEVHNAKTKPREEQYASTYRVVSVLTVLHQDWLNGKEYKCKVSNKALPAPIEKTISKAKGQPREPQVYTLPPSRCELTKNQVSLSCAVKGFYPSDIAVEWESNGQPENNYKTTPPVLDSDGSFFLVSKLTVDKSRWQQGNVFSCSVMHEALHNHYTQKSLSLSPDYKDDDDK
chain: EPKSSDKTHTCPPCPAPELLGGPSVFLFPPKPKDTLMISRTPEVTCVVVDVSHEDPEVKFNWYVDGVEVHNAKTKPREEQYNSTYRVVSVLTVLHQDWLNGKEYKCKVSNKALPAPIEKTISKAKGQPREPQVCTLPPSRDELTKNQVSLWCLVKGFYPSDIAVEWESNGQPENNYKTTPPVLDSDGSFFLYSKLTVDKSRWQQGNVFSCSVMHEALHNRYTQKSLSLSP
light: DIVMTQSPLSLPVTPGEPASISCRSSQSLVHSNRNTYLHWYQQKPGQAPRLLIYKVSNRFSGVPDRFSGSGSGTDFTLKISRVEAEDVGVYYCGQGTQVPYTFGQGTKLEIKRTVAAPSVFIFPPSDEQLKSGTASVVCLLNNFYPREAKVQWKVDNALQSGNSQESVTEQDSKDSTYSLSSTLTLSKADYEKHKVYACEVTHQGLSSPVTKSFNRGEC
B4: CE115HA000 K43Q one-arm antibody (antibody, human IgG1, kappa, L234A L235A, N297A, name in Kabat numbering)
heavy: QVQLVESGGGVVQPGRSLRLSCAASGFTFSNAWMHWVRQAPGQGLEWVAQIKAKSNNYATYYAESVKGRFTISRDDSKNSLYLQMNSLKTEDTAVYYCRYVHYGAYYGVDAWGQGTTVTVSSASTKGPSVFPLAPSSKSTSGGTAALGCLVKDYFPEPVTVSWNSGALTSGVHTFPAVLQSSGLYSLSSVVTVPSSSLGTQTYICNVNHKPSNTKVDKKVEPKSCDKTHTCPPCPAPEAAGGPSVFLFPPKPKDTLMISRTPEVTCVVVDVSHEDPEVKFNWYVDGVEVHNAKTKPREEQYASTYRVVSVLTVLHQDWLNGKEYKCKVSNKALPAPIEKTISKAKGQPREPQVYTLPPSRCELTKNQVSLSCAVKGFYPSDIAVEWESNGQPENNYKTTPPVLDSDGSFFLVSKLTVDKSRWQQGNVFSCSVMHEALHNHYTQKSLSLSPDYKDDDDK
chain: EPKSSDKTHTCPPCPAPELLGGPSVFLFPPKPKDTLMISRTPEVTCVVVDVSHEDPEVKFNWYVDGVEVHNAKTKPREEQYNSTYRVVSVLTVLHQDWLNGKEYKCKVSNKALPAPIEKTISKAKGQPREPQVCTLPPSRDELTKNQVSLWCLVKGFYPSDIAVEWESNGQPENNYKTTPPVLDSDGSFFLYSKLTVDKSRWQQGNVFSCSVMHEALHNRYTQKSLSLSP
light: DIVMTQSPLSLPVTPGEPASISCRSSQSLVHSNRNTYLHWYQQKPGQAPRLLIYKVSNRFSGVPDRFSGSGSGTDFTLKISRVEAEDVGVYYCGQGTQVPYTFGQGTKLEIKRTVAAPSVFIFPPSDEQLKSGTASVVCLLNNFYPREAKVQWKVDNALQSGNSQESVTEQDSKDSTYSLSSTLTLSKADYEKHKVYACEVTHQGLSSPVTKSFNRGEC
B5: CE115HA000 I51D one-arm antibody (antibody, human IgG1, kappa, L234A L235A, N297A, name in Kabat numbering)
heavy: QVQLVESGGGVVQPGRSLRLSCAASGFTFSNAWMHWVRQAPGKGLEWVAQDKAKSNNYATYYAESVKGRFTISRDDSKNSLYLQMNSLKTEDTAVYYCRYVHYGAYYGVDAWGQGTTVTVSSASTKGPSVFPLAPSSKSTSGGTAALGCLVKDYFPEPVTVSWNSGALTSGVHTFPAVLQSSGLYSLSSVVTVPSSSLGTQTYICNVNHKPSNTKVDKKVEPKSCDKTHTCPPCPAPEAAGGPSVFLFPPKPKDTLMISRTPEVTCVVVDVSHEDPEVKFNWYVDGVEVHNAKTKPREEQYASTYRVVSVLTVLHQDWLNGKEYKCKVSNKALPAPIEKTISKAKGQPREPQVYTLPPSRCELTKNQVSLSCAVKGFYPSDIAVEWESNGQPENNYKTTPPVLDSDGSFFLVSKLTVDKSRWQQGNVFSCSVMHEALHNHYTQKSLSLSPDYKDDDDK
chain: EPKSSDKTHTCPPCPAPELLGGPSVFLFPPKPKDTLMISRTPEVTCVVVDVSHEDPEVKFNWYVDGVEVHNAKTKPREEQYNSTYRVVSVLTVLHQDWLNGKEYKCKVSNKALPAPIEKTISKAKGQPREPQVCTLPPSRDELTKNQVSLWCLVKGFYPSDIAVEWESNGQPENNYKTTPPVLDSDGSFFLYSKLTVDKSRWQQGNVFSCSVMHEALHNRYTQKSLSLSP
light: DIVMTQSPLSLPVTPGEPASISCRSSQSLVHSNRNTYLHWYQQKPGQAPRLLIYKVSNRFSGVPDRFSGSGSGTDFTLKISRVEAEDVGVYYCGQGTQVPYTFGQGTKLEIKRTVAAPSVFIFPPSDEQLKSGTASVVCLLNNFYPREAKVQWKVDNALQSGNSQESVTEQDSKDSTYSLSSTLTLSKADYEKHKVYACEVTHQGLSSPVTKSFNRGEC
B6: CE115HA000 I51E one-arm antibody (antibody, human IgG1, kappa, L234A L235A, N297A, name in Kabat numbering)
heavy: QVQLVESGGGVVQPGRSLRLSCAASGFTFSNAWMHWVRQAPGKGLEWVAQEKAKSNNYATYYAESVKGRFTISRDDSKNSLYLQMNSLKTEDTAVYYCRYVHYGAYYGVDAWGQGTTVTVSSASTKGPSVFPLAPSSKSTSGGTAALGCLVKDYFPEPVTVSWNSGALTSGVHTFPAVLQSSGLYSLSSVVTVPSSSLGTQTYICNVNHKPSNTKVDKKVEPKSCDKTHTCPPCPAPEAAGGPSVFLFPPKPKDTLMISRTPEVTCVVVDVSHEDPEVKFNWYVDGVEVHNAKTKPREEQYASTYRVVSVLTVLHQDWLNGKEYKCKVSNKALPAPIEKTISKAKGQPREPQVYTLPPSRCELTKNQVSLSCAVKGFYPSDIAVEWESNGQPENNYKTTPPVLDSDGSFFLVSKLTVDKSRWQQGNVFSCSVMHEALHNHYTQKSLSLSPDYKDDDDK
chain: EPKSSDKTHTCPPCPAPELLGGPSVFLFPPKPKDTLMISRTPEVTCVVVDVSHEDPEVKFNWYVDGVEVHNAKTKPREEQYNSTYRVVSVLTVLHQDWLNGKEYKCKVSNKALPAPIEKTISKAKGQPREPQVCTLPPSRDELTKNQVSLWCLVKGFYPSDIAVEWESNGQPENNYKTTPPVLDSDGSFFLYSKLTVDKSRWQQGNVFSCSVMHEALHNRYTQKSLSLSP
light: DIVMTQSPLSLPVTPGEPASISCRSSQSLVHSNRNTYLHWYQQKPGQAPRLLIYKVSNRFSGVPDRFSGSGSGTDFTLKISRVEAEDVGVYYCGQGTQVPYTFGQGTKLEIKRTVAAPSVFIFPPSDEQLKSGTASVVCLLNNFYPREAKVQWKVDNALQSGNSQESVTEQDSKDSTYSLSSTLTLSKADYEKHKVYACEVTHQGLSSPVTKSFNRGEC

Biological target: T1, CD3 epsilon homodimer protein (UniProt P07766 23-126)
T1 construct: immobilized on Sensor chip CM4 by amine coupling; also called CD3 (CD3 epsilon)
T1 sequence (P07766 23-126): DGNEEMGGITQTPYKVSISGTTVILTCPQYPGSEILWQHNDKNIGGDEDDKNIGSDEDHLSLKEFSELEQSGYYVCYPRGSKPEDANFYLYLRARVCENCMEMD
Assay: SPR (Biacore T200), CD3 epsilon homodimer on CM4 chip, one-arm antibody as analyte, 25 C;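 also: homodimer attached to the sensor surface via amine coupling, HBS-EP+ used as running buffer during binding runs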

For B1, which “ratio of amounts bound (altered form / CE115HA000)” value is on record?
Its value is 0.17.

B2 was tested. Which “ratio of amounts bound (altered form / CE115HA000)” value did it give?
Its value is 0.9.

For B3, which “ratio of amounts bound (altered form / CE115HA000)” value is on record?
Its value is 0.25.

With B4 as the binder, how does the “ratio of amounts bound (altered form / CE115HA000)” value read?
The value was 0.99.

B5 was tested. Which “ratio of amounts bound (altered form / CE115HA000)” value did it give?
Its value is 0.29.

How did the “ratio of amounts bound (altered form / CE115HA000)” value turn out when B6 was run?
Its value is 0.55.
